These results are taken from a protein production outcome set (Wang et al. 2014).

This series can be described thus: label from the status in PepcDB records.

“MCSTNKNLACCKGDNVFDGQINGNESYPQVVNKQLPPKVLEPIIQNKIVEIPKEVYLEKIVEVPQIKTVERIVEQIRPVIKYKNVYKPKIVYVEKVKNVDKIIYQEKIVEVPQIKTVEKIVEVPVYVNRERIITVPRYMVVEKVIPVLKTSKRESIMEVPEVNCPHIDISKEVEDKEEIPINELKENQTISLADEKEIQILNDLTSQKVDSNATINMEGEQDTTVDTITQENFCGTVSCNFLPNYPNFSKIGNPLCKGGPEKEKRFSSISIYKSKDSGFPSIRIAKTPQMFQRNLYCSYA”: the protein production entry is recorded as “failed”. Regarding “MCTFCSIINRELEGYFVYEDEKFAAILDKYPVSLGHTLVIPKKHFENYLEADEDTLAELAKVVKLVSLGIKDAVKADGLRLLTNIGRSAGQVIFHLHVHIIPTWEGDYPDIFKSFKPRKEQEKEYYELLQKIIRESIENLKRKIGDYKWG”, the protein production entry was “not failed”. The entry for “MCVRLENENFKAELSESGAELTSLKSKNTDNEYIWTANSSYWGRHAPILFPIVGKVKDNKYRIADKVYNLSQHGFARDMEFEVEDNASDRAVFKLVWNDETLEKYPYKFELRVIYVLKDSTVDVTYNVKNVDDKDIFFSIGAHPGFNCPVIGKQSENDELQFEDYYIEFEKRETTGVVKLNSSNLLSRNTSPFLYASNILNLSEKLFKQGALILKDLDSTSISLKNDKNTTSVTVSFEGFPYVGLWSKPEGAPFVCIEPWFGHADYEDFNGDFREKEDGLKLEVGKEFECTYSITIGELEHHHHHH” is “not failed”. The result for “MCYTGDMEDVKHPRLTRRGRIYWFRAKVPADLRSHYAPKTEIIYSLKTSDPREALVRVRIASVKADQEFEVARRIPKEEVRTSLSDDEAERLVAIYYQVRLEEDEEIRIGGKQEADLYLGVKAQLEALGIGHANYTNEEAVAEYGLSQREYQKNQETLEFMEPLYREALSTGNTEIIHDELDDILEANSIKLDRTSSQYRKLAFSILKATVKVLDVEKRRNSGEPIDTPPEPPPLFKPAVTAVPANSLRLSEVFERWKVERKPAKRSLMEWDTAIRRFTALYGDKPVESITKAEVVEFKDSLLQQGKAAATVLKQVGAIKSTLQYAVDNGKLSVNPATGVKVAGKRASEVRRLPYDAEDLKAIFSSPVFTCGDRPLAGSGEASFWLPLLALFTGARLNEIGQILVSDVRELDGIHYLDLNTEGEGKSLKNEGSRRKVPLHPEIIRLGFLDYVRKQGESLGSDSRVFDKLEPNSNGVLTANFSKWWGRYARENGIAKGQKVFHSFRHSFKDACRESSLPQDIHDALTGHSPNNVGGRYGQGFTVRRLGEEMAKLSYPGLDLSGLMKP” reads “failed”; that for “MDADHLQRIFDEAVQAHGEGRLDEAEAGFRAVLEVLPHEGEALFGLGLTLMGLRRFSEAIPPLKAAAAEPGAEPVRFLCLAQGLYMTGAFAEAAETFAAVAHQDGFNDGARLTWARSAAYAALDDTDADSALALYGQIAGPVAEDLDTVAREGFSTLVAFERLAAARKLGQWLEARAPDDAIRAHELRVLTDPQIDRAPPAYVEALFDAFAERFDHQLLDNLEYQTPTLLAEMIGVADRRFTHMLDLGCGTGLAGPPLRARVARLTGVDLSTAMLAKAAERGGYDALVHAEAVAFLRETPDRFDLIVAADVFSYLGDLGDILAAAAGALSDDGLLAFSVEQGETWWRLLPSARYAHGDDYVRAAGAGVGLEVIQHRQTPLRRQADAAIPGGLYVLRKIRAA”, “failed”; that for “MDADNTAHLIYLSLLGAALVFWFISHNRASLGKTLQMALAWVFIFVGVIAVVGLWGDIRSTVAGTPRISVSENRVEIPRSPDGHYYATLIIEDKPLRFLVDTGASQVVLSHADAERLGIDTSALNYFGRAYTANGEVRTAPVKLGRVQLGGFTDQGVTAWVNEGEMSESLLGMDYLQRFRSIEIAGGTLVLAR”, “failed”. The entry for “MDALLGPPESSWEGADRSDADLRWARGGREARDRRDQLLPALHALNDRVGWISEGALDYVCRRLTVPPAEAYGVATFYAMFSVRPRPATVLHVCTDLACTAAGASRLCAAVESRLGPESGVKLERSPCLGLCERAPATLVIRAGESARPAQEDTPARPAFEDEAVQAEGGSGGAAPGDGGGTSRSSEAESGGGKGRRGRNTLHATAICAPATPDRAIAAATAPESAPTEPAPEAAVPQAGDPTLTLLHRIGTTDPTSLDDYRAHGGYTALRRAFALGPAAVIREVTDAGLVGRGGAAFPTGRKWQATAAQPDHPHYLVCNADESEPGTFKDRVLMEGDPYALVEAMTIAAYATGAHRGYLYLRGEYPRALARLTHAIEQARTRGLLGDDVLGQGYAFDIEIRRGAGAYICGEETALFNSIEGRRGEPRSKPPFPVEKGLFGKPTVENNVETLVNVLPILTMGAEAYAAIGTPTSTGPKLFCVSGTVARPGVYELPFGATLGELLALAGVRDNLRAVLLGGAAGGFVRPDELDIPLTFEGTREAGTTLGSGVVMAFDDTVPLPRLLLRIAEFFRDESCGQCVPCRVGTVRQEEALHRIADRTGAAAADDIALLREVGRAMRDASICGLGQTAWNAVESAIDRLGAYE” is “failed”. In the case of “MDALQLLTWSLILYLFASLASLFLLGLDRLAIKLSGITSLVGGVIGIISGITQLHAGVTLVARFAPPFEFADLTLRMDSLSAFMVLVISLLVVVCSLYSLTYMREYEGKGAAAMGFFMNIFIASMVALLVMDNAFWFIVLFEMMSLSSWFLVIARQDKTSINAGMLYFFIAHAGSVLIMIAFLLMGRESGSLDFASFRTLSLSPGLASAVFLLAFFGFGAKAGMMPLHSWLPRAHPAAPSHASALMSGVMVKIGIFGILKVAMDLLAQTGLPLWWGILVMAIGAISALLGVLYALAEQDIKRLLAWSTVENVGIILLAVGVAMVGLSLHDPLLTVVGLLGALFHLLNHALFKGLLFLGAGAIISRLHTHDMEKMGALAKRMPWTAAACLIGCLAISAIPPLNGFISEWYTWQSLFSLSRVEAVALQLAGPIAMVMLAVTGGLAVMCFVKMYGITFCGAPRSTHAEEAQEVPNTMIVAMLLLAALCVLIALSASWLAPKIMHIAHAFTNTPPATVASGIALVPGTFHTQVTPSLLLLLLLAMPLLPGLYWLWCRSRRAAFRRTGDAWACGYGWENAMAPSGNGVMQPLRVVFSALFRLRQQLDPTLRLNKGLAHVTARAQSTEPFWDERVIRPIVSATQRLAKEIQHLQSGDFRLYCLYVVAALVVLLIAIAV”, the protein production entry is “failed”. The result for “MDALVSTKANSIAYQRSTVIIPAYNEEKRLMPVLYELCEYIRSNSLEWKVMVSIDGDDGTESNVKIMMQEYSFLSYSKGKGRGGKGAAIKRAITSATGEFVILMDADGSVPLKEIVKALDLTNYYDLIIFDRYSNRGNRIPFIRRFPSRGFNKLVRIFLGLKINDTQCGYKIIKREYAQRAFNKITISNAFFDVALLYYLKKERAKYIEIPVEYNYDRNSKFHVVELVLGEGISLIAFRIRNSRFYKYVPEKLISLYYRKFRWILEHHHHHH” reads “not failed”; that for “MDASDDSLIGRITEVRAGRFAARLLSDEEGFRNEVSLGDEVQHPGQVGTYVSIRNGTFRILALVREVSGGAAGSAAGSAMQLVPLGEFNDKGAFSRGVRRYPVPGAEVHAASPQEINAVFARTRNLRFNPGYLPNHPATGVYLDPSALCSRHFAILGQSGAGKSWTVASLLQRMLASAPRAHIILLDLHGEYCWRGADGVLHSTFPPMATRAMDARELEIPYWLMSFAELVDLLIERDDPAASIQTAFLRETVFELKRRSARELGLEGVSIDAPVYFSLQEVYERFKEANEHRTDFGKTKGPLFGQFDDFLLKLGSRLHDVRYDFLLNPARRTRSESLPDLLRDFVGLGEPRCQISVIDLSPVPFDVRPTVSAQIGRLAFEFNYWNLDRREFPILLVCEEAHTYIPRERATQYEGTRKSMERIAKEGRKYGVGLAVVSQRPHELSETVLSQCGSYICLRISNPDDQAYVRKLVPEGEADLVDVLTALGRGEALILGEATPLPVRCQIFRPDPPPNSNDVDFHKAWNADTANLDIGAIVRRWWNQGR”, “failed”; that for “MDAYSWLLAVIILLPLISASVPIAASVRWKNVGWAIAAVVVSATFAMSVALAWMVPRAEDRLLAHQLGGVEVPIGIELFADEFSVIVLLLVLAVCLGVLVFTRIGGPRGNAFYSGFLLLVGGMMGILLTGDLFNMYVFLEIMAISSYALVSASKYRWSTYAAFKYLLVGTVGAGFYLLGVALVLASTGTLTMRLLPELLAAVGYTDPVVVAAFILMAVGLAIKIALFPVHTWLADAHASAPDGISAVISALVPAVAVYAFARVLFTVYTLDFIAANPVIGNLLLVAALFSLFAGSFFALLQDHIKLVLAYSTVSQFGLIFVGIAIANETAVFGAILQIFGHGVVKASLFVLAGMFALRFGGIRTLKEYSGVAERAPIMAGAFAVLGIAMIGLPPTVGFAGKWYIALGAFEAGLWQVSLLVLGSTLLSAGYILPFINRIYFHPFEGEDVDAAKVTTGMLIAIIIGAGIGLLLGFASAEIQAAVSTAVERLVA”, “failed”. The result for “MDCSESCHLKEPSKDRAFTHKPVVDEFKKSVHGAGHAPGATKDFHGGNRLEEETGQQNPSCRRCHSNTPYIKDANLERFKQELHHTETECGTCHQGETWRNQFSGHILRRLVGKNYDKMEANAMCVDCHGDHEAMAKVEIQDPETRERKKASFRFAHATDSYAKTLHGRLLAVNDESGASCIDCHAPDGFRHGILRDESKDSPTHPDRLGETCSQAGCHGYAKSPLNLGFLNTDLHDLDFLRMEDLSFALDFSRLDSAWYAAAWVLGPLGLIFLTSSLLSPLSRSRRAPVTEVVGYDHFQRVMIGGGSAKDGLWRRIRGRLVGGTPAVPVPAPLVEPGAPITSLTILFGSQTGNGEGVAADLEARLKAWGYSVELADMADYDPREIVNERLLFVIVSTHGEGQPPLPAEKLHGYLYAETAPRLEHLKFAVFALGDSSYKHFCKAGKDFDAFLQRLGASRVLDRVDADADFEEAAAAWIDAVLGCCRAIIGDTGIERPLEAEPVDHAVAKSGYGKTHPYPAAVLRNVNLNGEGSAKETRHIEIDLGDSGLSYEPGDALGVYPKNDPAYVEALLAALQADGYSEVTLGKETLSLREAFYKHLDITGLSRVLVEKYAELCDSRVLAGLLADPDPARLEGYLWGRQIIDLVEDFPIQGISPQTFVNVLRRLPPRLYSIASSMKAHPGQVHLTVGAVRYHAHGRNREGVCSTYLAGRIGPGERLAIFVQPNKHFRLPEDPETPLIMVGPGTGIAPFRGFVEEREVTGARGRNWLYFGDQRRATDYLYREEWEDKLRRGVLTRLDLAFSRDQERKVYVQTRMLENAREMYAWLEEGACFYVCGDASRMAQDVHRALLAIVMQEGGRTQEQAEEYLEAMAASRRYLRDVY” reads “failed”; that for “MDDEGLPRFAGVVYDQEEGIDALVGDFVEGLLARKLRVGGLLQGREPDAEGVTRTVVRVIGKARRIVISQNLGRHSTACSIDSAAIAEAAVALRQALEERPALIVGNRFGHLELEGAGMSEEMLDILASGTPFLIPVARRFEEGWRRFTGDMGDLLDPRPAALTAWFEALAPVTALEHHHHHH”, “failed”. For “MDDGDTADDIMDATYRALCTHGYADLTMQDIADESDKSKAALHYHYDSKHDLLCAFLEYLYDGFVDRIEDPAGETPHERLLSLIDSVLDKPDDGSEEFGTAILEIRAHAPYEPGFRERLTKFDDYLVDELEVILEDGIADGTFKSDLDADETAQFIVTVLTGAATERVTTGRPVKCTRRMLTEYVETHLLDGQQEVTA”, the protein production result was “not failed”. The entry for “MDDISVSKSNHGNVVVLNIKASSLADTSLPSNKHESSSPPLLSVHFLQKLLAELVGTYYLIFAGCAAIAVNAQHNHVVTLVGIAVVWGIVIMVLVYCLGHLSAHFNPAVTLALASSQRFPLNQVPAYITVQVIGSTLASATLRLLFDLNNDVCSKKHDVFLGSSPSGSDLQAFVMEFIITGFLMLVVCAVTTTKRTTEELEGLIIGATVTLNVIFAGEVSGASMNPARSIGPALVWGCYKGIWIYLLAPTLGAVSGALIHKMLPSIQNAEPEFSKTGSSHKRVTDLPL” is “failed”.
